Experimental data reported in patent US20250270315A1.
Numbering of substitutions follows the chain as printed.

B1: 005c (antibody, V domains shown)
VH: EVKLVESGGGLVQPGGSLSLSCAASGFTFTDYYMSWVRQPPGKALEWLGFIKNEANGYTTESSASVKGRFTISRDNSQSILYLQMNALRAEDSATYYCARYDYYGSNYNWYFDAWGTGTTVTVSS
VL: DIVMTQSQKFMSPSVGDRVSITCKASQNVRTAVAWYQQKPGQSPKVLIHLASKRHTGVPDRFTGSGSGTDFTLTISNVQSEDLADYFCLQHWIHPLTFGAGTKLELK
B2: 071c (antibody, V domains shown)
VH: QIQLVQSGPELKKPGETVKISCKASGYTFTTYGMSWVKQAPGKGLKWMVWINTYSGVPTYADDFQGRFAFSLETSASTSYLQINNLRNEDTATYFCARDPHYYGTSPAWFAYWGQGTLVTVSA
VL: DIVMTQSQKFMSTTIGDRVIITCKASQIVGIAVAWYQQKPGQSPKLLIYSASNRFTGVPDRFTGSGSGTDFTLTISNMQSEDLADYFCQQYSTYPFTFGSGTKLEIK
B3: 042c (antibody, V domains shown)
VH: QIQLVQSGPELKKPGETVKISCRASGYTFTTYGMSWVKQAPGKGLRWMGWINTYSGVSTCADDFKGRFAFSLETSATTAYLQIHNLTNEDTATYFCARDPHSYGNSPAWFPYWGQGTLVTVSA
VL: B2 VL with G16R, I20S, I28N, A32S, P40S, F55Y, T93S, F96L, E105A
B4: 073c (antibody, V domains shown)
VH: B2 VH with Q65K, R87K, T105S, A111V
VL: B2 VL with I20S, K24E, F55Y, D85N, T93A, I106V
B5: 059c (antibody, V domains shown)
VH: QVQLQQSGPELVKPGASVKMSCKASGYTFSEYVLSWVKQRTGQGLEWIGEIYPGTITTYYNEKFKGKATLTADKSSNTAYIQLTSLTSEDSAVYFCGRFYDYDGGWFAYWGQGTLLTVSA
VL: ENVLTQSPEKMAVSLGQKVTMTCSASSSVSSSDLHWYQQKSGASPKPLIHGTSNLASGVPARFSGSGSGTSYSLTISSVEAEDAATYYCQQWSGYPWTFGGGTNLEIK
B6: 025c (antibody, V domains shown)
VH: EVQLQQSGAELVKPGASVKLSCTASGFNIKDYYMHWVKQRTEQGLEWIGRIDPEDGETKYAPKFQGKATITADTSSNTAYLQLSSLTSEDTAVYYCDRGLAYWGQGTLVTVSA
VL: QIVLTQSPAIMSASPGEKVTLTCSASSSVSSSYLYWYQQKPGSSPKLWIYSTSNLASGVPARFSGSGSGTSYSLTISSMEAEDAASYFCHQWSSYPYTFGGGTKLEIK
B7: 015c (antibody, V domains shown)
VH: EVQLQQSGVEVVQPGASVKLSCTASGFNIEAYYMHWVKQRTEQGLEWIGRIDPEDGESKYAPKFQGKATMTADTSSSTAYLQLSSLTSDDTAVYYCVRGSYEYWGQGTTLTVSS
VL: B6 VL with A61P, E80Q, H90Y
B8: hu025.021 (antibody, V domains shown)
VH: EVQLVQSGAEVKKPGATVKISCKVSGFNIKDYYMHWVQQAPGKGLEWIGRIDPEDAETKYAPKFQGRVTITADTSTNTAYMELSSLRSEDTAVYYCDRGLAYWGQGTLVTVSS
VL: EIVLTQSPATLSLSPGERATLSCSASSSVSSSYLYWYQQKPGQAPKLWIYSTSNLASGIPARFSGSGSGTDYTLTISSLEPEDFAVYYCHQWSSYPYTFGQGTKLEIK
B9: hu025.023 (antibody, V domains shown)
VH: B8 VH
VL: B8 VL with Y72F
B10: hu025.033 (antibody, V domains shown)
VH: B8 VH with N77D
VL: B8 VL
B11: hu025.059 (antibody, V domains shown)
VH: B8 VH with V24A
VL: B8 VL
B12: hu025.060 (antibody, V domains shown)
VH: B8 VH with V24A
VL: B8 VL with Y72F
B13: 005 (antibody, V domains shown)
VH: B1 VH
VL: B1 VL
B14: 042 (antibody, V domains shown)
VH: B3 VH
VL: B2 VL with G16R, I20S, I28N, A32S, P40S, F55Y, T93S, F96L, E105A
B15: 073 (antibody, V domains shown)
VH: B2 VH with Q65K, R87K, T105S, A111V
VL: B2 VL with I20S, K24E, F55Y, D85N, T93A, I106V
B16: 071 (antibody, V domains shown)
VH: B2 VH
VL: B2 VL
B17: 059 (antibody, V domains shown)
VH: B5 VH
VL: B5 VL
B18: 025 (antibody, V domains shown)
VH: B6 VH
VL: B6 VL
B19: 015 (antibody, V domains shown)
VH: B7 VH
VL: B6 VL with A61P, E80Q, H90Y

Target: human SIRPα v2 expressed on cells (CHOK1 stable line KYinno KC-1720) (human) (UniProt P78324)
Assay: FACS, CHOK1-hSIRPα v2 cells

| EC50 | TOP MFI | Binder |
| --- | --- | --- |
| 5.47 nM | 53300 MFI | B1 |
| 3.31 nM | 46700 MFI | B2 |
| 4.21 nM | 54800 MFI | B3 |
| 2.12 nM | 47300 MFI | B4 |
| 12 nM | 19600 MFI | B5 |
| 1.34 nM | 51600 MFI | B6 |
| 1.58 nM | 50100 MFI | B7 |

Target: human SIRPα v2 expressed on cells (CHOK1 stable line KYinno KC-1720) (human) (UniProt P78324)
Assay: FACS, CHOK1-hSIRPα v2 cells
Remark: another data set of the same source

| EC50 | TOP MFI | Binder |
| --- | --- | --- |
| 0.87 nM | 46400 MFI | B8 |
| 0.81 nM | 45800 MFI | B9 |
| 0.62 nM | 39800 MFI | B10 |
| 0.75 nM | 47300 MFI | B11 |
| 0.8 nM | 48800 MFI | B12 |
| 0.99 nM | 53000 MFI | B6 |

Target: cyno SIRPα stably expressed on CHOK1 cells (cyno)
Assay: FACS, CHOK1-cyno SIRPα cells

| MFI at 10 nM | Binder |
| --- | --- |
| 5970 MFI | B13 |
| 6850 MFI | B14 |
| 7850 MFI | B15 |
| 8370 MFI | B16 |
| 5840 MFI | B17 |
| 8560 MFI | B18 |
| 10800 MFI | B19 |

Target: cyno SIRPα stably expressed on CHOK1 cells (cyno)
Assay: FACS, CHOK1-Cyno SIRPα cells

| EC50 | TOP MFI | Binder |
| --- | --- | --- |
| 2.64 nM | 32300 MFI | B2 |
| 2.95 nM | 32400 MFI | B3 |
| 1.76 nM | 30700 MFI | B4 |
| 17.2 nM | 17400 MFI | B5 |
| 0.69 nM | 30800 MFI | B6 |
| 0.69 nM | 29700 MFI | B7 |

Target: Human SIRPα v2 (antigen of the Octet and Biacore affinity measurements) (human) (UniProt P78324)
Assay: BLI (Octet), 1:1 binding model

| Kd | koff | kon | Binder |
| --- | --- | --- | --- |
| 6.14 nM | 0.00378 s⁻¹ | 616000 M⁻¹ s⁻¹ | B3 |
| 2.67 nM | 0.00293 s⁻¹ | 1.1e+06 M⁻¹ s⁻¹ | B6 |
| 0.937 nM | 0.00117 s⁻¹ | 1.24e+06 M⁻¹ s⁻¹ | B7 |

Target: Human SIRPα v2 (antigen of the Octet and Biacore affinity measurements) (human) (UniProt P78324)
Assay: SPR (Biacore), 1:1 binding model

| Kd | koff | kon | Binder |
| --- | --- | --- | --- |
| 3.39 nM | 0.0056 s⁻¹ | 1.65e+06 M⁻¹ s⁻¹ | B8 |
| 2.78 nM | 0.00492 s⁻¹ | 1.77e+06 M⁻¹ s⁻¹ | B9 |
| 2.76 nM | 0.00392 s⁻¹ | 1.42e+06 M⁻¹ s⁻¹ | B11 |
| 2.34 nM | 0.00344 s⁻¹ | 1.47e+06 M⁻¹ s⁻¹ | B12 |
| 1.69 nM | 0.00254 s⁻¹ | 1.51e+06 M⁻¹ s⁻¹ | B6 |

Target: human SIRPα v2 expressed on cells (CHOK1 stable line KYinno KC-1720) (human) (UniProt P78324)
Assay: FACS, CHOK1 cells stably expressing human SIRPα v2

| EC50 (read off the curve) | Binder |
| --- | --- |
| 1 nM | B6 |

Target: human SIRPα v2 expressed on cells (CHOK1 stable line KYinno KC-1720) (human) (UniProt P78324)
Assay: competitive FACS, mFc-CD47 ECD on CHOK1-human SIRPα v2 cells

| IC50 | TOP blocking (%) | Binder |
| --- | --- | --- |
| 0.75 nM | 100% | B9 |
| 0.77 nM | 99.8% | B12 |
| 0.63 nM | 99.7% | B6 |
